Experimental data reported in paper PMC9482650, “Quantitative fragmentomics allow affinity mapping of interactomes” (Nature Communications, 2022).

What was measured:
Test in all cases: holdup assay
Set-up in all cases: key: below the threshold = too weak to quantify, mostly under pKd 3.1 to 4
GIPC2, Q8TF65 = biological target: GIPC2, Q8TF65
Inadl_2, Q8NI35 = biological target: Inadl_2, Q8NI35
MPDZ_10, O75970 = biological target: T1, MPDZ_10, O75970
T1 sequence (O75970 1624-1722, limits assumed, looked up): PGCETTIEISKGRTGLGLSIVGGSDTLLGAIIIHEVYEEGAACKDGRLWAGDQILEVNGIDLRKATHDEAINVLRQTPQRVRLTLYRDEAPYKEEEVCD

IL16_4, Q14005 = biological target: IL16_4, Q14005
Sequence of IL16_4, Q14005 (Q14005 1229-1329): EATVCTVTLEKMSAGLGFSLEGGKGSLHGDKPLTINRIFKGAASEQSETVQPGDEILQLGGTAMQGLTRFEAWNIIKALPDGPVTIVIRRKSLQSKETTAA

ARHGEF11, O15085 = biological target: T2, ARHGEF11, O15085
T2 sequence (O15085 42-136, limits assumed, looked up): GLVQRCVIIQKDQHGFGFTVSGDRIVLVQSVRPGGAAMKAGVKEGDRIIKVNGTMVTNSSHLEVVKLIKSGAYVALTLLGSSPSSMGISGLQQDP

MAGI1_2, Q96QZ7 = biological target: MAGI1_2, Q96QZ7
Sequence of MAGI1_2, Q96QZ7 (Q96QZ7 456-580): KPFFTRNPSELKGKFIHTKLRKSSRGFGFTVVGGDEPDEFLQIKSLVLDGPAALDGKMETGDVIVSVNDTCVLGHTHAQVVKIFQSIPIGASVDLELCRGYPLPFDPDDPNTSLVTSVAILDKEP

RADIL, Q96JH8 = biological target: T3, RADIL, Q96JH8
T3 sequence (Q96JH8 971-1071, limits assumed, looked up): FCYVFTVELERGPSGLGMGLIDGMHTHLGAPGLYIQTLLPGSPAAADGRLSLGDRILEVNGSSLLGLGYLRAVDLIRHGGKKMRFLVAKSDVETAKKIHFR

ARHGAP21, Q5T5U3 = biological target: T4, ARHGAP21, Q5T5U3
T4 sequence (Q5T5U3 45-169, limits assumed, looked up): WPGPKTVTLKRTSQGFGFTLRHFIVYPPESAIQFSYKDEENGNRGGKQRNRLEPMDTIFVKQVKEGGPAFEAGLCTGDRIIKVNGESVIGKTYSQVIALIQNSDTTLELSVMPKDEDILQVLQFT

GRIP2_5, Q9C0E4 = biological target: GRIP2_5, Q9C0E4
Sequence of GRIP2_5, Q9C0E4 (Q9C0E4 544-642): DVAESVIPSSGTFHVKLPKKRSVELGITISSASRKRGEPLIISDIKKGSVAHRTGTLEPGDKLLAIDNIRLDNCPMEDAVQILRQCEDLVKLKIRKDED

SIPA1L2, Q9P2F8 = biological target: T5, SIPA1L2, Q9P2F8
T5 sequence (Q9P2F8 945-1036, limits assumed, looked up): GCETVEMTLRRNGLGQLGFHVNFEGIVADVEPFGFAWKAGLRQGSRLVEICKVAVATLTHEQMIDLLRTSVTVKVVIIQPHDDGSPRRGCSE

LIN7C, Q9NUP9 = biological target: T6, LIN7C, Q9NUP9
T6 sequence (Q9NUP9 88-185, limits assumed, looked up): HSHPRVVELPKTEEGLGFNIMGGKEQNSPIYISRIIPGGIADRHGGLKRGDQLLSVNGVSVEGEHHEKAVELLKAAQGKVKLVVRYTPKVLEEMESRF

PTPN13_1, Q12923 = biological target: T7, PTPN13_1, Q12923
T7 sequence (Q12923 1088-1188, limits assumed, looked up): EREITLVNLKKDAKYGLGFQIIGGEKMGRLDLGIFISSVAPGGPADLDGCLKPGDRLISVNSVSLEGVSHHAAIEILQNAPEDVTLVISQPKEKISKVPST

NHERF4_4, Q86UT5 = biological target: NHERF4_4, Q86UT5
Sequence of NHERF4_4, Q86UT5 (Q86UT5 464-550): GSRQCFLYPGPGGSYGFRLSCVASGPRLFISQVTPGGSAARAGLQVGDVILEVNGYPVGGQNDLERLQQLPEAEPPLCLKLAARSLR

MPP6, Q9NZW5 = biological target: T8, MPP6, Q9NZW5
T8 sequence (Q9NZW5 125-219, limits assumed, looked up): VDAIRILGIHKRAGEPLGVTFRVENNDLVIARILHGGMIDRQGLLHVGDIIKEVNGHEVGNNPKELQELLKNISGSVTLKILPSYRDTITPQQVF

DVL3, Q92997 = biological target: T9, DVL3, Q92997
T9 sequence (Q92997 244-331, limits assumed, looked up): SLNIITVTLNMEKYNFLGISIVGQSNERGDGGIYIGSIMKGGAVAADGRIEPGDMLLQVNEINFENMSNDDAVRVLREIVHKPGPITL

TJP1_3, Q07157 = biological target: TJP1_3, Q07157
Sequence of TJP1_3, Q07157 (Q07157 416-512): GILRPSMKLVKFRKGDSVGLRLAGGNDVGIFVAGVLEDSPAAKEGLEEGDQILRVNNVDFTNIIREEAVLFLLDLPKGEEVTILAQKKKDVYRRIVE

HTRA2, O43464 = biological target: HTRA2, O43464
Sequence of HTRA2, O43464 (O43464 355-458): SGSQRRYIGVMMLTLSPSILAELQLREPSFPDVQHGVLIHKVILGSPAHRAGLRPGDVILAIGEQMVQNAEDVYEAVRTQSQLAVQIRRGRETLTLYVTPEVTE

PDLIM1, O00151 = biological target: PDLIM1, O00151
Sequence of PDLIM1, O00151 (O00151 1-87): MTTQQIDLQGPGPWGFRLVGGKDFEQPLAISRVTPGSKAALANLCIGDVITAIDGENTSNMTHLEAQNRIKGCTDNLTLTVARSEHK

CARD11, Q9BXL7 = biological target: T10, CARD11, Q9BXL7
T10 sequence (Q9BXL7 662-765, limits assumed, looked up): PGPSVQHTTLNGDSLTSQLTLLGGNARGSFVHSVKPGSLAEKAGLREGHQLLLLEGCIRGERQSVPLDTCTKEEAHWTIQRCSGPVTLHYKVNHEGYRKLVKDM

ARHGEF12, Q9NZN5-2 = biological target: ARHGEF12, Q9NZN5-2
Sequence of ARHGEF12, Q9NZN5-2 (Q9NZN5 other isoform, or with tags, fused parts or gaps): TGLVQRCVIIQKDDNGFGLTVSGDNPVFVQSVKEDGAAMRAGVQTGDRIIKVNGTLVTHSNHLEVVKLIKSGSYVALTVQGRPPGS

RAPGEF6, Q8TEU7 = biological target: T11, RAPGEF6, Q8TEU7
T11 sequence (Q8TEU7 525-625, limits assumed, looked up): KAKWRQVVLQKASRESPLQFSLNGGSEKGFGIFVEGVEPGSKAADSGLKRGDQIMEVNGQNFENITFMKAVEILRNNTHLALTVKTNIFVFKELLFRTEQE

PTPN3, P26045 = biological target: PTPN3, P26045
Sequence of PTPN3, P26045 (P26045 505-587): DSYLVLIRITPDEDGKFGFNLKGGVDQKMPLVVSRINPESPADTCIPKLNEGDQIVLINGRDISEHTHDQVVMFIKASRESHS

Inadl_3, Q8NI35 = biological target: Inadl_3, Q8NI35
Sequence of Inadl_3, Q8NI35 (Q8NI35 359-469): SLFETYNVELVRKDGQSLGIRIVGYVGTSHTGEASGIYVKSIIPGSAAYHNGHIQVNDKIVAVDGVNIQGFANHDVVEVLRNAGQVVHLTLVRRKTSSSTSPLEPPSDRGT

MPDZ_5, O75970 = biological target: T12, MPDZ_5, O75970
T12 sequence (O75970 695-796, limits assumed, looked up): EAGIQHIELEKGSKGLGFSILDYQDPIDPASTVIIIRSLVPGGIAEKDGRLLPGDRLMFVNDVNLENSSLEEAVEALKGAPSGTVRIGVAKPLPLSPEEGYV

Inadl_6, Q8NI35 = biological target: Inadl_6, Q8NI35
Sequence of Inadl_6, Q8NI35 (Q8NI35 1058-1167): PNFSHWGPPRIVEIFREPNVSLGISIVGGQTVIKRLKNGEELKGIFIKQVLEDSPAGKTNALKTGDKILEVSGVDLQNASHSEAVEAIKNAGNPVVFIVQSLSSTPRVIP

[1] = plain residues with an end cap or a label only (N-terminal biotin on a linker: ahx)
[2] = plain residues with an end cap or a label only (N-terminal biotin on a linker: ado-ado)
[3] = plain residues with an end cap or a label only (N-terminal biotin on a linker: ttds)

Sequence of Inadl_2, Q8NI35 (Q8NI35 238-335): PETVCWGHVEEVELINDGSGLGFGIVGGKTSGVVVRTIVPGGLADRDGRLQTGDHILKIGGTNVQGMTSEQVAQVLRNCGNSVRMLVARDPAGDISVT
Sequence of GIPC2, Q8TF65 (Q8TF65 112-203): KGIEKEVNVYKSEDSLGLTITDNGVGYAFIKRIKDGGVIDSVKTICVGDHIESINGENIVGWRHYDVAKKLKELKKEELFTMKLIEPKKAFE

QGRWDHETIV [TMEM215, Q68D42]
pKd (GIPC2, Q8TF65; [1]): 3.81
pKd (Inadl_2, Q8NI35; [1]): 4.22
pKd (MPDZ_10, O75970; [1]): below the threshold
pKd (IL16_4, Q14005; [1]): below the threshold
pKd (ARHGEF11, O15085; [1]): 4.04
pKd (MAGI1_2, Q96QZ7; [1]): 3.84
pKd (RADIL, Q96JH8; [1]): 4.83
pKd (ARHGAP21, Q5T5U3; [1]): below the threshold
pKd (GRIP2_5, Q9C0E4; [1]): below the threshold
pKd (SIPA1L2, Q9P2F8; [1]): below the threshold
pKd (LIN7C, Q9NUP9; [1]): 3.88
pKd (PTPN13_1, Q12923; [1]): below the threshold
pKd (NHERF4_4, Q86UT5; [1]): below the threshold
pKd (MPP6, Q9NZW5; [1]): below the threshold
pKd (DVL3, Q92997; [1]): 3.69
pKd (TJP1_3, Q07157; [1]): below the threshold
pKd (HTRA2, O43464; [1]): 3.68
pKd (PDLIM1, O00151; [1]): below the threshold
pKd (CARD11, Q9BXL7; [1]): below the threshold
pKd (ARHGEF12, Q9NZN5-2; [1]): 3.71
pKd (RAPGEF6, Q8TEU7; [1]): below the threshold
pKd (PTPN3, P26045; [1]): 4.19
pKd (Inadl_3, Q8NI35; [1]): 4.42
pKd (MPDZ_5, O75970; [1]): below the threshold
pKd (Inadl_6, Q8NI35; [1]): 3.98

EEPEERHTEL [CES2, O00748]
pKd (GIPC2, Q8TF65; [2]): below the threshold
pKd (Inadl_2, Q8NI35; [2]): below the threshold
pKd (MPDZ_10, O75970; [2]): below the threshold
pKd (IL16_4, Q14005; [2]): below the threshold
pKd (ARHGEF11, O15085; [2]): 4.64
pKd (MAGI1_2, Q96QZ7; [2]): below the threshold
pKd (RADIL, Q96JH8; [2]): below the threshold
pKd (ARHGAP21, Q5T5U3; [2]): below the threshold
pKd (GRIP2_5, Q9C0E4; [2]): below the threshold
pKd (SIPA1L2, Q9P2F8; [2]): below the threshold
pKd (LIN7C, Q9NUP9; [2]): below the threshold
pKd (PTPN13_1, Q12923; [2]): below the threshold
pKd (NHERF4_4, Q86UT5; [2]): below the threshold
pKd (MPP6, Q9NZW5; [2]): below the threshold
pKd (DVL3, Q92997; [2]): below the threshold
pKd (TJP1_3, Q07157; [2]): below the threshold
pKd (HTRA2, O43464; [2]): below the threshold
pKd (PDLIM1, O00151; [2]): 3.59
pKd (CARD11, Q9BXL7; [2]): below the threshold
pKd (ARHGEF12, Q9NZN5-2; [2]): 5.03
pKd (RAPGEF6, Q8TEU7; [2]): 3.56
pKd (PTPN3, P26045; [2]): 4.94
pKd (Inadl_3, Q8NI35; [2]): below the threshold
pKd (MPDZ_5, O75970; [2]): below the threshold
pKd (Inadl_6, Q8NI35; [2]): 3.87

RTRQRNETQV [HPV51-E6, P26554]
pKd (GIPC2, Q8TF65; [3]): 3.63
pKd (Inadl_2, Q8NI35; [3]): below the threshold
pKd (MPDZ_10, O75970; [3]): below the threshold
pKd (IL16_4, Q14005; [3]): below the threshold
pKd (ARHGEF11, O15085; [3]): 3.69
pKd (MAGI1_2, Q96QZ7; [3]): 5.93
pKd (RADIL, Q96JH8; [3]): 3.82
pKd (ARHGAP21, Q5T5U3; [3]): below the threshold
pKd (GRIP2_5, Q9C0E4; [3]): below the threshold
pKd (SIPA1L2, Q9P2F8; [3]): below the threshold
pKd (LIN7C, Q9NUP9; [3]): 3.84
pKd (PTPN13_1, Q12923; [3]): below the threshold
pKd (NHERF4_4, Q86UT5; [3]): below the threshold
pKd (MPP6, Q9NZW5; [3]): below the threshold
pKd (DVL3, Q92997; [3]): below the threshold
pKd (TJP1_3, Q07157; [3]): below the threshold
pKd (HTRA2, O43464; [3]): below the threshold
pKd (PDLIM1, O00151; [3]): below the threshold
pKd (CARD11, Q9BXL7; [3]): below the threshold
pKd (ARHGEF12, Q9NZN5-2; [3]): 3.73
pKd (RAPGEF6, Q8TEU7; [3]): below the threshold
pKd (PTPN3, P26045; [3]): 4.38
pKd (Inadl_3, Q8NI35; [3]): below the threshold
pKd (MPDZ_5, O75970; [3]): below the threshold
pKd (Inadl_6, Q8NI35; [3]): below the threshold

DPRNTQTSQI [ABRAXAS2, Q15018]
pKd (GIPC2, Q8TF65; [3]): 3.54
pKd (Inadl_2, Q8NI35; [3]): below the threshold
pKd (MPDZ_10, O75970; [3]): below the threshold
pKd (IL16_4, Q14005; [3]): 3.66
pKd (ARHGEF11, O15085; [3]): 4.03
pKd (MAGI1_2, Q96QZ7; [3]): 3.52
pKd (RADIL, Q96JH8; [3]): below the threshold
pKd (ARHGAP21, Q5T5U3; [3]): below the threshold
pKd (GRIP2_5, Q9C0E4; [3]): below the threshold
pKd (SIPA1L2, Q9P2F8; [3]): below the threshold
pKd (LIN7C, Q9NUP9; [3]): 3.66
pKd (PTPN13_1, Q12923; [3]): below the threshold
pKd (NHERF4_4, Q86UT5; [3]): below the threshold
pKd (MPP6, Q9NZW5; [3]): below the threshold
pKd (DVL3, Q92997; [3]): below the threshold
pKd (TJP1_3, Q07157; [3]): below the threshold
pKd (HTRA2, O43464; [3]): below the threshold
pKd (PDLIM1, O00151; [3]): below the threshold
pKd (CARD11, Q9BXL7; [3]): below the threshold
pKd (ARHGEF12, Q9NZN5-2; [3]): 4.44
pKd (RAPGEF6, Q8TEU7; [3]): below the threshold
pKd (PTPN3, P26045; [3]): 3.77
pKd (Inadl_3, Q8NI35; [3]): below the threshold
pKd (MPDZ_5, O75970; [3]): below the threshold
pKd (Inadl_6, Q8NI35; [3]): below the threshold
